In article PMC3344845, “Structure of Bradavidin – C-Terminal Residues Act as Intrinsic Ligands” (PLoS ONE, 2012):

What was measured:
[1] = molecular target: core-bradavidin (Bradyrhizobium japonicum); experiment: ITC; core-bradavidin in the cell, ligand (Brad-tag or Brad-tag–EGFP) in the syringe, 15°C, 50 mM sodium phosphate pH 7.0, 100 mM NaCl; n is the stoichiometry per subunit
[2] = molecular target: core-bradavidin (Bradyrhizobium japonicum); experiment: as above; remark: listed apart in the source
[3] = molecular target: core-bradavidin (Bradyrhizobium japonicum); experiment: ITC; core-bradavidin, avidin, streptavidin or rhizavidin in the cell, Brad-tag in the syringe, 40°C, 50 mM sodium phosphate pH 7.0, 100 mM NaCl; n is the stoichiometry per subunit

Kd [1]: 25 µM | dH [1]: 1.7 kcal mol^–1 | stoichiometry N [1]: 0.94 | dH [2]: 1.1 kcal/mol | Kd [3]: 26 µM | dH [3]: -4.4 kcal mol^–1 | stoichiometry N [3]: 0.62
B1: Brad-tag (synthetic peptide SEKLSNTK) (peptide)
peptide: SEKLSNTK
